This note sets out measurements from the DeepSol protein solubility set.

The series can be described thus: soluble on expression in E. coli; label from the status in PepcDB or PDB records.
For “MGSDKIHHHHHHMGNRQRILPLGVQAPATLEGYYPCPNAAALHAVLKLVAEPQGLCLYLYGPGGVGKSHLLLGAASALAGWTPYMDCGDVPQLFNRIKDLEGFSSLVAAPLLCLDNIEVWAGQRDKETFLFDLYNERMSNGRPMLLAGRAAPRFLDWALPDWASRASACLQVALRLPDDTERMAILQEMAQRRGLQIGVEAAHYLLRHHARDPRTLDGLLTILDAGSWEHQREVTIPFIRLCLGAEKP”, the “soluble on expression in E. coli” value is “not soluble”.

In the case of “MSLRGGEDSPVDGARQAAANVFGPIENGVSSAVDPVGNAVSAVRDSGDRHDRLARLETENAALKAKSGSDERGRSRLKQFDKMLGLAGAGQYGIKGAQVIAIGAAQGFSWTITIDAGANDGVKRDMTVLNGDGLVGRVTTVGPNTATVLLANDPDFTVGTRMESGDELGFASGQGSRPLRVELLNGKADVKKGDRLVTFGSQADKPFVPGVPVGTITRVDPNGGDLTRILDVTPFVSFTKLDIVGVVVQAPSKDPRDTVLPEKKQPKPTPTVTVTVTPGADPEGQTRNDEAGQDEAAGQNDATGQNDQTEQQNEQPEPEGHHHHHH”, the “soluble on expression in E. coli” value is “soluble”.

With “MAGMFQDLLYLNLIGAVRAITAAQGIKIRISGEENVPESGGAVVVVNHTGYLDFIYAGYPFRKFRRYIRYMAKGDVFKHPVAGPLLREMRHIPVDRIDGTAAFDQAVDMLKKGELVGIFPEATISRSFEIKTLRPGAVRMAQAAGVPIIMVMVVGSQRVWTKGQKKNLIHPGSPIHMKVFPAWYPEGDANEATQELRRRMITGLEEVWSDYQAEEPIVPGALWVPARLGGGAPTFDEAQAEDEKVEQERRRVRVLTEEIAQLTERIKQATKAGASAVDAARHRVEDVLHGEVPAKADAGKALSVLKDTVDEFVEEVVSSAKEGKDRVMDAGEQLRRSVADLYGQAVTASQVNPVVVQATAQVSMLLDRLPQRKDAPKVELPRVLVLSVDGAVAAYPEVTLSPSVLSQVAALSQQHTVVLTTISGMDRVVALARQVAQESGADVCVSASAGAVAATVSDTDVSVLHECVVSDELRAAVQECVDSLGLDVEWKGAHHGVVSGLGADPDLWQELSQVVRVVPLPGEPDRCVIVSPEASVEAAVQTCVGDVWDEVLVCAADASEAGALARAGHRVAVVSAPVVVLREAAQWCDRPDKDGVINFLDKHFITPESV”, the “soluble on expression in E. coli” value is “not soluble”.

For the sequence “SADISLDELIRKRGAAAKGRLNARPGVGGVRSRVGIQQGLLSQSTRTATFQQRFDARQKIGLSDARLKLGVKDAREKLLQKDARFRIKGKVQDAREMLNSRKQQTTVPQKPRQVADAREKISLKRSSPAAFINPPIGTVTPALKLTKTIQNLYDLDEDDDGIASVPTKQMKFAASGGFLHHMAGLSSSKLSMSKALPLTKVVQNDAYTAPALPSSIRTKALPVLTSPGT”, the “soluble on expression in E. coli” value is on record as “soluble”.

In the case of “EILPNFFKSARPIEGLRPYTVLETAGRQIYIQEGCYHCHSQLIRPFQAEVDRYGAYSLSGEYAYDRPFLWGSKRIGPDLHRVGDYRTTDWHEKHMFDPKSVVPHSIMPAYKHLFTKKSDFDTAYAEALTQKKVFGVPYDTENGVKLGSVEEAKKAYLEEAKKITADMKDKRVLEAIERGEVLEIVALIAYLNSLGNSRINANQNA”, the “soluble on expression in E. coli” value is on record as “not soluble”.

With “MAASIELFEQNGFSETSIQDIVDALGVTKGTFYYYFTSKEELLMDIHLRYIERLLDEEERIISDKRRSVQEKLYDIIFMLIHNVERQGREARIFFREMKHLNEEHLQKVKEKRDLFRYRLQSLIEEGMKSGELRCDLSPSIATLTVLGAANWSYQWFRPDGELTDAEVAKQMVEILLDGMSAPSVSKAE”, the “soluble on expression in E. coli” value is on record as “not soluble”.

For “MGSDKIHHHHHHMRALDIAATGMSAQQLRVDVISNNIANMSTTGYSPRRADFADLHYQQMVRAGAINASDGTVVPAGVQIGLGVRPAAVTVTWEQGTLGATGGQLDVAIEGRGYLEVTLPSGDNAYTRDGALQRTGDGLIVTNDGFEVNPGITIPDDAQEITINANGEVFASFRGEIQPQLLGQLNMVRFTNDNGLEAIGSNLFLETGASGAPLAGDPGEDGMGTFRQGYVEQSSVDAVREITDLIEAQRGYELNAKVLTAADQILGATTQVR”, the “soluble on expression in E. coli” value was “not soluble”.

Turning to “MVNKVLVANRGEIAVRIIRACKELGIPTVAIYNEVESTARHVKLADEAYMIGTDPLDTYLNKQRIINLALEVGADAIHPGYGFLAENAEFAKMCEEAGITFIGPHWKVIELMGDKARSKEVMKKAGVPVVPGSDGVLKSLEEAKALAREIGYPVLLKATAGGGGRGIRICRNEEELVKNYEQASREAEKAFGRGDLLLEKFIENPKHIEYQVLGDKHGNVIHLGERDCSIQRRNQKLVEIAPSLILTPEKREYYGNIVTKAAKEIGYYNAGTMEFIADQEGNLYFIEMNTRIQVEHPVSEMVTGIDIVKWQIKIAAGEPLTIKQEDVKFNGYAIECRINAEDPKKNFAPSTRVIERYYVPGGFGIRVEHAAARGFEVTPYYDSMIAKLITWAPTWDEAVERMRAALETYEITGVKTTIPLLINIMKEKDFKAGKFTTKYLEEHPEVFEYEE”, the “soluble on expression in E. coli” value is on record as “soluble”.

For “VVIRVLFRPVSLIPVNNSSTPQSQGPISRRLALTALGFGVLAPNVLVACAGKVTKLAEKRPPPAPRLTFRPADSAADVVPIAPISVEVGDGWFQRVALTNSAGKVVAGAYSRDRTIYTITEPLGYDTTYTWSGSAVGHDGKAVPVAGKFTTVAPVKTINAGFQLADGQTVGIAAPVIIQFDSPISDKAAVERALTVTTDPPVEGGWAWLPDEAQGARVHWRPREYYPAGTTVDVDAKLYGLPFGDGAYGAQDMSLHFQIGRRQVVKAEVSSHRIQVVTDAGVIMDFPCSYGEADLARNVTRNGIHVVTEKYSDFYMSNPAAGYSHIHERWAVRISNNGEFIHANPMSAGAQGNSNVTNGCINLSTENAEQYYRSAVYGDPVEVTGSSIQLSYADGDIWDWAVDWDTWVSMSALPPPAAKPAATQIPVTAPVTPSDAPTPSGTPTTTNGPGG”, the “soluble on expression in E. coli” value was “not soluble”.

For the sequence “MFNVSALAAATPSIASVSSVASPSEQHGLSTSVGVGVNDTTSRTGDGGAASSASSASAAPQQQSQSALHNKLEAKWDTLLPTDTNLQCSTWPDSIPLLAGYSATPTFSFDPCTYGSYDPSAYFASNGIAGSMYTLPDQFPRSENDMLDNSNTSNGNKSDKDGIKLEDEDEILEDEENDEEDDGTGKRKKRKRRVLFTKAQTYELERRFRSQKYLSAPEREALAMQIRLTPTQVKIWFQNHRYKTKKSHTDKPINAALLTTMPNAFSSQSTAASFPTRAMPIPMLVRDSSARSSDISSTSPYTVAFGSANSGYLPTPSAYLPATSGYFSNGPSAASSYMTNTQWWPS”, the “soluble on expression in E. coli” value is recorded as “not soluble”.

For the sequence “MGSDKIHHHHHHMAEKKEFVVGIDLGTTNSVIAWMKPDGTVEVIPNAEGSRVTPSVVAFTKSGEILVGEPAKRQMILNPERTIKSIKRKMGTDYKVRIDDKEYTPQEISAFILKKLKNDAEAYLGGEIKKAVITCPAYFNDAQRQATKEAGIIAGLEVLRIINEPTAAALAYGLDKAGKEEKVLVYDLGGGTFDVSILEIGEGVIEVIATAGNNHLGGDDFDQRLIDWMAEEFKKQHGIDLREDRQALQRLRDAAEKAKIELSTKMETDVSLPFIAVSPSGQPLHLEMRITRSLFESLTRDLVEMTRGPIEQALNDAKLSPQDIDEIILVGGMTRVPMVQRFIKEFFGKEPNKSVNPDEAVAIGAAIQAAILAGTEGAKGRDIVLVDVTPLTLGIEVKGGLFEPIIPRNTKIPVRKSKIFTTVEDGQTEVEIRVYQGERPIARENIFLGSFKLVGIPPAPRGVPQIEVTFDIDSDGIVHVSAKDLGSGKEQSMVVTGRHKLSEDEIKRMIEDAKRYEEQDKRLKEEIELKNRADDLAYSVEKTLKEHGDKIPADLKSRLEDMIRELRDAINRNDIPKVKMLFDDLQKESMKIGEYLYKSATGGETSNQ”, the “soluble on expression in E. coli” value is “not soluble”.

Regarding “MGGLFVTPAKAVKTTNYAEEIAALQPGTTPEEIMKSASQIAKQQHVKQDVILKQFYKEITADKAEGDRLAKESGMSIMGGSSGTKKLPTSAKGNIYYTNSYTAYYNHGHVGMYSAADKIVESVPSDGVRQIAYNARDVEDNSIVQTVSVSSSQKTAAADWAVSKVGDPYSFNFVNNRNTGHDGAKNCSKLLWSAFLLKAGIDIDSNGGLGVYPRDITSSSYTTTIMTIYLEHHHHHH”, the “soluble on expression in E. coli” value is recorded as “not soluble”.

As for “MSLDKLQRISEAIKSKKKLVVMFSGGVDSTLLAKLAREVLGKNAVALTIDSPVIPRKEIEEAKNLANLIGIRHEFIELNELKSRHLIENPPDRCYLCRKLRDNIVKNWARENGFDVIADGLNFSDLQDYRPGVKASTEDGIWHPFIDFEVTKEEIREYSKKLGLPTWDKPAMACLCSRFPYGFGLNEERVRMVEKAENFLRELGFREVRVRFFPYKTAVVEVGRDEMELLMGKRTDIVLALQKIGFSFVTLDLEGFASGKLNRTIEGMSKEGGSHHHHHH”, the “soluble on expression in E. coli” value is reported as “soluble”.

“MALDLTAYFDRINYRGATDPTLDVLQDLVTVHSRTIPFENLDPLLGVPVDDLSPQALADKLVLRRRGGYCFEHNGLMGYVLAELGYRVRRFAARVVWKLAPDAPLPPQTHTLLGVTFPGSGGCYLVDVGFGGQTPTSPLRLETGAVQPTTHEPYRLEDRVDGFVLQAMVRDTWQTLYEFTTQTRPQIDLKVASWYASTHPASKFVTGLTAAVITDDARWNLSGRDLAVHRAGGTEKIRLADAAAVVDTLSERFGINVADIGERGALETRIDELLARQPGADAP”: the “soluble on expression in E. coli” value was “not soluble”.

As to “MGSDKIHHHHHHMITSKDNLTLIFVHACGVGNWMWYKQKDYFSNFSCMFIELPEHGDNYNIQPFSVKSAIKMIDKTVRSASGEVVLIGHEMGARLILNYLAEYTNDKVKKIVLSSTMIKTVKEGLFHKILPAKIIEKEFEKKNKNLQNIDFIKKTLDYYGVEEEYKDYYLNDMKRYKPRQLIKIIQEGLLKKLPLNLFIDNDIPALILVGEKETNANRLSAKLLSEYFSNSELIIVDNSTDNHIRTNSMVFNDRVKNFILT”, the “soluble on expression in E. coli” value is on record as “not soluble”.

Turning to “AHHHHHHASAKWVCKICGYIYDEDAGDPDNGISPGTKFEELPDDWVCPICGAPKSEFEKLEDGSEKVDRIIQMEIGRINSHLPKARKSLCELLKEDSPSIELRDGSLHYFRRSELEFLKTLAGEEACLVKLPIILELSTLDRGYFVVRGRGEVRVIKKLLELSEDIYLEENTVRLPRYYLPTIRRKLPTTTVYAFITEW”, the “soluble on expression in E. coli” value was “soluble”.

In the case of “MLNGKNKSAVNRQRFLKRHKEQIKESVADAVNRRSITNTETGEDVSIPHKDINEPIFHQGKGGVRERVHPGNDQFITGDKIERPKGGGQGSGSGEGNASPDGEGQDEFVFQISKDEYLDILFEDLELPNLEKNQIAKITEWKTHRAGFQTAGIPSNISVIRSLQQSLARRTAMTAGKKRLLKELEDELTRIKNIEPAQQLEENRLKKEIEELRKKIENVPFIDTFDLRFKNYEKRPVPSSQAVMFCLMDVSGSMDQATKDIAKRFYVLLYLFLTRTYENVDVVFIRHHTQAKEVDEHEFFYSQETGGTIVSSALKLMDEIVKERYPVGQWNIYAAQASDGDNWADDSPRCRDLLVNKLLPNCQYYSYIEITRRSHQTLWHEYEKLTDEFPNFAMKNIRSVEDIFPVFRELFQKETALEHHHHHH”, the “soluble on expression in E. coli” value was “not soluble”.

Take “MPANGGRGVGEGESPVSFFERLKAGLQKTKEALIGQVNTVMSVFRKIDDDLFDELEEALIRGDVGVATSAKLVEELRREARQKGLKNGDELLPLLKELVAERLGSGAAPLRLNEGGLTVILVVGVNGVGKTTTIGKLARHLREDRGLKVVLAAADTFRAAAMDQLKVWGERAGAEVVTGPEGADPAAVAFDGVKAARASGADVLIVDTAGRLHNKAHLMAELGKIARVLGREVPGAPHETLLVLDATTGQNAIQQTRLFKETVPVTGIALTKLDGTAKGGVVVAIADTEQVPVKFIGVGERLDDLQPFDPRQFVEALFSE”: the “soluble on expression in E. coli” value is “soluble”.
